In assay [1] the target is EXP2 (P. falciparum (endogenous in strain NF54attB)). Description: cryo-EM structure.
Assay [2] deals with PTEX150 (P. falciparum (endogenous in strain NF54attB)). Description: cryo-EM structure.

On to EXP2 (natural protein), for which the stoichiometry N in assay [1] is 7.

In the case of PTEX150 (natural protein), the stoichiometry N in assay [2] was determined as 7.

Source of the values: PMC6555636.
